Laboratory results from patent USRE44022 (COMMISSARIAT A L ENERGIE ATOMIQUE, dated 2013).
Square brackets hold non-standard residues; d marks the D form.

Molecular target: KDR receptor (VEGFR-2) (UniProt P35968)
Assay: displacement of 125I-VEGF from CHOm VEGFR2 cells

Sequence of KDR receptor (VEGFR-2) (UniProt P35968) (P35968 20-1356 limits assumed): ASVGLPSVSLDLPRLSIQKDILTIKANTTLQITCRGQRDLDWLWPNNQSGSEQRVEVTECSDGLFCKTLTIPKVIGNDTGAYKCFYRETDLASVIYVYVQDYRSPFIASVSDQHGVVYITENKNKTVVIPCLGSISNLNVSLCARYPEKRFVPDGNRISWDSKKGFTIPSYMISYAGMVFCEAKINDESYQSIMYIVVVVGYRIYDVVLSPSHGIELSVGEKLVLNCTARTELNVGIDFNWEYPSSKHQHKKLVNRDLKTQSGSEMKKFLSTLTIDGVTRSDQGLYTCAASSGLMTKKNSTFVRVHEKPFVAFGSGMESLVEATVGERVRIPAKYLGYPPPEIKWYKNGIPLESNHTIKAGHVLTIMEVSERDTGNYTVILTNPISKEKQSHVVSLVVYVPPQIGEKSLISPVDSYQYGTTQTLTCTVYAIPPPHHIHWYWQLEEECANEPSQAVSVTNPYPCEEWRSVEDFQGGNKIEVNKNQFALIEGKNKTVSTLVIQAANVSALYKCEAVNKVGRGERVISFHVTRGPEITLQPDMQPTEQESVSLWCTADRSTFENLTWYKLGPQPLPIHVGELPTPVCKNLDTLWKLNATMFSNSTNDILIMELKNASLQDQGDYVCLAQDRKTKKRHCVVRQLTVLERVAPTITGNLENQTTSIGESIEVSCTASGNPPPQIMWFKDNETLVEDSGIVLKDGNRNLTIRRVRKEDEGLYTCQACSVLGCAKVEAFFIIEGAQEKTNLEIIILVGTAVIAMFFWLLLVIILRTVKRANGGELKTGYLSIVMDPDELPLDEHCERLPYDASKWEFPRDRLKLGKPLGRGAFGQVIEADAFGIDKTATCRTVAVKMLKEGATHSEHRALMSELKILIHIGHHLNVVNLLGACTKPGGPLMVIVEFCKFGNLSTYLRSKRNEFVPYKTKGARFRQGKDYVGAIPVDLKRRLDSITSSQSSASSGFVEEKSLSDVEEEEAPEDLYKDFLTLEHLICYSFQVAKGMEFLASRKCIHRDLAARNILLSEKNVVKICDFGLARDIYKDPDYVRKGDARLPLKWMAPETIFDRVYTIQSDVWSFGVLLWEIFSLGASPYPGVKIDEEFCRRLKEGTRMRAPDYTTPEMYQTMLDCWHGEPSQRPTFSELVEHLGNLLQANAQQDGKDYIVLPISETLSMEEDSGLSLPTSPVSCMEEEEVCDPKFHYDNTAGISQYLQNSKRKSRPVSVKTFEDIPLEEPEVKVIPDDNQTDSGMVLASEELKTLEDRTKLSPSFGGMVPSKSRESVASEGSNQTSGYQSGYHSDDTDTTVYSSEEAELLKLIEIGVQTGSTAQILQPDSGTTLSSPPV

| Binder | IC50 |
| --- | --- |
| cyclo([dY]PRIKPHQ) (SMILES CC[C@H](C)[C@@H]1NC(=O)[C@H](CCCNC(=N)N)NC(=O)[C@@H]2CCCN2C(=O)[C@@H](Cc2ccc(O)cc2)NC(=O)[C@H](CCC(N)=O)NC(=O)[C@H](Cc2c[nH]cn2)NC(=O)[C@@H]2CCCN2C(=O)[C@H](CCCCN)NC1=O) [P23] | 8 µM |

Molecular target: T1, KDR receptor (VEGFR-2) (UniProt P35968 20-1356, limits assumed)
Assay: cell-based or functional assay

T1 sequence (P35968 20-1356 limits assumed): as above

| Binder | Migration (IC50) | Proliferation (IC50) |
| --- | --- | --- |
| cyclo([dF]PQIMRIKPHQGQHIGE) (SMILES CC[C@H](C)[C@@H]1NC(=O)[C@H](Cc2c[nH]cn2)NC(=O)[C@H](CCC(N)=O)NC(=O)CNC(=O)[C@H](CCC(N)=O)NC(=O)[C@H](Cc2c[nH]cn2)NC(=O)[C@@H]2CCCN2C(=O)[C@H](CCCCN)NC(=O)[C@H]([C@@H](C)CC)NC(=O)[C@H](CCCNC(=N)N)NC(=O)[C@H](CCSC)NC(=O)[C@H]([C@@H](C)CC)NC(=O)[C@H](CCC(N)=O)NC(=O)[C@@H]2CCCN2C(=O)[C@@H](Cc2ccccc2)NC(=O)[C@H](CCC(=O)O)NC(=O)CNC1=O, Cyclopeptide; 6); also called P11 (cyclic) peptide) [P11] | 30 µM | 7 µM |

Molecular target: T1, KDR receptor (VEGFR-2)
Assay: displacement of 125I-VEGF from CHOm VEGFR2 cells

| Binder | IC50 |
| --- | --- |
| GRIKPH (cyclic (cyclo, ends of the linear peptide coupled), Cyclopeptide; also called cyclo(Gly-Arg-Ile-Lys-Pro-His)) [P24] | 8 µM |
| cyclo([dF]PQIMRIKPHQGQHIG) (SMILES CC[C@H](C)[C@@H]1NC(=O)[C@H](Cc2c[nH]cn2)NC(=O)[C@H](CCC(N)=O)NC(=O)CNC(=O)[C@H](CCC(N)=O)NC(=O)[C@H](Cc2c[nH]cn2)NC(=O)[C@@H]2CCCN2C(=O)[C@H](CCCCN)NC(=O)[C@H]([C@@H](C)CC)NC(=O)[C@H](CCCNC(=N)N)NC(=O)[C@H](CCSC)NC(=O)[C@H]([C@@H](C)CC)NC(=O)[C@H](CCC(N)=O)NC(=O)[C@@H]2CCCN2C(=O)[C@@H](Cc2ccccc2)NC(=O)CNC1=O, Cyclopeptide) [P20] | 10 µM |
| QIMRIKPHQGQHIGE (cyclic (cyclo, cyclised on the solid phase, method B), Cyclopeptide) [P19] | 5 µM |
| cyclo([dF]PIMRIKPHQGQHI) (SMILES CC[C@H](C)[C@@H]1NC(=O)[C@H](CCCNC(=N)N)NC(=O)[C@H](CCSC)NC(=O)[C@H]([C@@H](C)CC)NC(=O)[C@@H]2CCCN2C(=O)[C@@H](Cc2ccccc2)NC(=O)[C@H]([C@@H](C)CC)NC(=O)[C@H](Cc2c[nH]cn2)NC(=O)[C@H](CCC(N)=O)NC(=O)CNC(=O)[C@H](CCC(N)=O)NC(=O)[C@H](Cc2c[nH]cn2)NC(=O)[C@@H]2CCCN2C(=O)[C@H](CCCCN)NC1=O, Cyclopeptide) [P21] | 200 µM |
| PRIKPHQGQH (cyclic (cyclo, ends of the linear peptide coupled), Cyclopeptide) [P9] | 300 µM |
| PRIKPHQG (cyclic (cyclo, ends of the linear peptide coupled), Cyclopeptide) [P17] | 10 µM |
| cyclo([dF]PQIMRIKPHQGQHIGE) (SMILES CC[C@H](C)[C@@H]1NC(=O)[C@H](Cc2c[nH]cn2)NC(=O)[C@H](CCC(N)=O)NC(=O)CNC(=O)[C@H](CCC(N)=O)NC(=O)[C@H](Cc2c[nH]cn2)NC(=O)[C@@H]2CCCN2C(=O)[C@H](CCCCN)NC(=O)[C@H]([C@@H](C)CC)NC(=O)[C@H](CCCNC(=N)N)NC(=O)[C@H](CCSC)NC(=O)[C@H]([C@@H](C)CC)NC(=O)[C@H](CCC(N)=O)NC(=O)[C@@H]2CCCN2C(=O)[C@@H](Cc2ccccc2)NC(=O)[C@H](CCC(=O)O)NC(=O)CNC1=O, Cyclopeptide; 6); also called P11 (cyclic) peptide) [P11] | 2 µM |
| GQIMRIKPHQGQHIGE (cyclic (cyclo, ends of the linear peptide coupled), Cyclopeptide) [P12] | 300 µM |
| GRIKPHQGH (cyclic (cyclo, ends of the linear peptide coupled), Cyclopeptide) [P8] | 200 µM |
| RIKPHQG (cyclic (cyclo, ends of the linear peptide coupled), Cyclopeptide; also called cyclo(Arg-Ile-Lys-Pro-His-Gln-Gly)) [P16] | 32 µM |
